Results reported in article PMC11305080 (2024).

B1: HIT01-K21Q-R218E (cleavage-resistant variant of HIT01) (designed binder)
chain 1: DYSEDQEVKAPQLDHPDPGTERVAELLRCTKSVWRIPEQYLVVLREGTRDSHVQRTVSTLRAQAARRGHAIHIMHTYSGVFHGFLIKMSSEVLPMALKLPHVAYIEEDSSIFAQ
chain 2: SIPWNLQRIIQTKHETGKYTPPNDGAQVTVFLLDTSVQTDHREIEGKVMVTDFNSMPKEDGTRFHESASKCESHGTHIAGVLSGRDAGVARGVSVNTVRVLNCQGRGTVSGALAGLEYIRASLQAQPVSPVIILLPFVGGFSRTLNTACREMVHSGAVLIAAAGNYQDDACMYSPASEPEVITVGASNAADRPLSSGTTGTNLGRCVDVFAPGEDIISASGDCSTCFVSMSGTSQSAAHAAGIAAVLLNAYPSASPAEVLQLLRYHAVQRVINPDSLPPEHYLTTPDMVAALPTSAATGEKLLCRSVWSKRSGVGSFDTAVARCRHGEEMFSCSSYSPNGVHAGERIEIRDGQKVCEAHHGIGGQGVYAVARCCTGSRVKCHASASLHVGIDAECPSQEFQLTGCSSHYIRSQDVAQPSWPLHSNRKACPAGEGGTSHAFCCHAPNLECHLIEHHQSEFTKQVEVSCEDSWTLTGCNAVSHGSVTHAAYTRGNTCVIQMFGGDKGAAAIAICCRYRPLDQQSNNNHEQNT
B2: AMG145 (evolocumab) IgG (antibody, V domains shown)
VH: EVQLVQSGAEVKKPGASVKVSCKASGYTLTSYGISWVRQAPGQGLEWMGWVSFYNGNTNYAQKLQGRGTMTTDPSTSTAYMELRSLRSDDTAVYYCARGYGMDVWGQGTTVTVSS
VL: ESALTQPASVSGSPGQSITISCTGTSSDVGGYNSVSWYQQHPGKAPKLMIYEVSNRPSGVSNRFSGSKSGNTASLTISGLQAEDEADYYCNSYTSTSMVFGGGTKLTVL
B3: 1D05 Fab (Fab, V domains shown)
VH: QVQLVQSGAEVKKPGSSVKVSCKASGGTFNSHAISWVRQAPGQGLEWMGGINPILGIANYAQKFQGRVTITADESTSTAYMELSSLRSEDTAVYYCARHYEIQIGRYGMNVYYLMYRFASWGQGTLVTVSS
VL: DIQMTQSPSSLSASVGDRVTITCRASQGIRSALNWYQQKPGKAPKLLIYNGSTLQSGVPSRFSGSGSGTDFTLTISSLQPEDFAVYYCQQFDGDPTFGQGTKVEIK

Key:
Experiment in all cases: BLI
[1] = molecular target: J16
[2] = molecular target: human proprotein convertase subtilisin/kexin type 9 (PCSK9) (human, UniProt Q8NBP7 153-692)
[3] = molecular target: B1

Binder | Kd [1] | Kd [2] | Kd [3]
B1 | 620 pM |  | 
B2 |  | 170 pM | 190 pM
B3 |  |  | 1830 pM
